# Data taken from article PMC7083075 (Cell, 2019).
# T1: hKCNQ1EM (human KCNQ1, residues 76-620) (human, UniProt P51787-1 76-620)
# T1 sequence (looked up): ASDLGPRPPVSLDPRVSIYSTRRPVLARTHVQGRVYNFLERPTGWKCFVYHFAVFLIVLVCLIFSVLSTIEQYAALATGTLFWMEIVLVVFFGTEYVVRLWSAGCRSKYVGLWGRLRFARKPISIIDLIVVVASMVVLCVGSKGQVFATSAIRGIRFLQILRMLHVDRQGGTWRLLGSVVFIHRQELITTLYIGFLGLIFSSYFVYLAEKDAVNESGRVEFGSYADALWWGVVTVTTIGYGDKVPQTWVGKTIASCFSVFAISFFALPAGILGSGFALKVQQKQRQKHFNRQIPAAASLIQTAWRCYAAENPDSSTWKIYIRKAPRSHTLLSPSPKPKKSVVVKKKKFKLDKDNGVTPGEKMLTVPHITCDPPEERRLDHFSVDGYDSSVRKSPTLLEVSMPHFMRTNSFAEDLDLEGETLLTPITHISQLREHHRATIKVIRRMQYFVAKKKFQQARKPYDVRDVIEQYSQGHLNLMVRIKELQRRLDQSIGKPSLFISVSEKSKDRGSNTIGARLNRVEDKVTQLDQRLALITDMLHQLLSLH
# B1: KCNE3 (full-length human, N-terminal mCherry2) (natural protein, UniProt Q9Y6H6 1-103, looked up)
# chain: METTNGTETWYESLHAVLKALNATLHSNLLCRPGPGLGPDNQTEERRASLPGRDDNSYMYILFVMFLFAVTVGSLILGYTRSRKVDKRSDPYHVYIKNRVSMI
# Molecular target: T1, hKCNQ1EM (human KCNQ1, residues 76-620)
# Test: cryo-EM structure
binder,measurement,value
B1,stoichiometry N,4 KCNE3 per KCNQ1 tetramer
